The values that follow come from paper PMC4827060.

Usually Kd stands for the constant that tells how readily two partners part at equilibrium. Higher therefore signals a looser complex. The term koff denotes the first-order rate constant of dissociation. A low value points to slow dissociation. Usually kon stands for the rate constant with which the complex forms. Read a high kon as faster complex formation.

Among the targets are Rat IgG (rat); Rabbit IgG (rabbit); Mouse IgG (mouse).
Test in all cases: SPR; IgG amine-coupled to CM5 chip (Biacore 3000); GST-ABD or GST at 54, 108, 216 and 432 nM, 10 μl/min for 7 min; 25 °C; PBS running buffer; 1:1 Langmuir model
For orientation: In SPR one partner is held on a chip, and binding of the other changes the refractive index at the surface.

In the case of “GST-ABD (recombinant secondary antibody mimic; glutathione-S-transferase fused through a linker to the antibody-binding domain of protein A) (domain or fragment)”, in the assay with Rat IgG (rat), the Ka came to 2.3e+08 M⁻¹, the Kd amounted to 4.34 nM, the off-rate (koff) was determined as 0.00022 s⁻¹ and the kon came to 51800 M⁻¹ s⁻¹. Further, in the assay with Rabbit IgG (rabbit), the Ka amounted to 7.6e+08 M⁻¹, the Kd turned out to be 1.31 nM, the koff amounted to 9e-05 s⁻¹ and the kon came to 66600 M⁻¹ s⁻¹. In the assay with Mouse IgG (mouse), this substance came in with a Ka of 5.9e+07 M⁻¹, a Kd of 16.8 nM, an off-rate (koff) of 0.00107 s⁻¹ and a kon of 63800 M⁻¹ s⁻¹.
